Results taken from paper PMC5493754, “Myosin 7 and its adaptors link cadherins to actin” (Nature Communications, 2017).

Columns and labels:
Test in all cases: MST; YFP-fused partner constant at 100 nM, non-fluorescent protein titrated (16 two-fold dilutions); 20 mM Hepes pH 7.0, 100 mM NaCl, 1 mM EGTA, 0.5 mM TCEP, 0.05% Tween 20; Monolith NT.115
Conditions in all cases: both partners purified
YFP-Myosin 7a MF2 = target: T1, YFP-Myosin 7a MF2 (human, UniProt Q13402-1 1702-2215)
T1 construct: Myosin 7a, human, MF2, residues 1702-2215 of UniProt Q13402-1; pET14-YFP vector; also called ^YFPM7a MF2; source: E. coli (BL21-AI, BL21 (DE3) Rosetta or BL21-Gold (DE3)), purified (Histrap, CaptoQ, gel filtration)
T1 sequence (looked up): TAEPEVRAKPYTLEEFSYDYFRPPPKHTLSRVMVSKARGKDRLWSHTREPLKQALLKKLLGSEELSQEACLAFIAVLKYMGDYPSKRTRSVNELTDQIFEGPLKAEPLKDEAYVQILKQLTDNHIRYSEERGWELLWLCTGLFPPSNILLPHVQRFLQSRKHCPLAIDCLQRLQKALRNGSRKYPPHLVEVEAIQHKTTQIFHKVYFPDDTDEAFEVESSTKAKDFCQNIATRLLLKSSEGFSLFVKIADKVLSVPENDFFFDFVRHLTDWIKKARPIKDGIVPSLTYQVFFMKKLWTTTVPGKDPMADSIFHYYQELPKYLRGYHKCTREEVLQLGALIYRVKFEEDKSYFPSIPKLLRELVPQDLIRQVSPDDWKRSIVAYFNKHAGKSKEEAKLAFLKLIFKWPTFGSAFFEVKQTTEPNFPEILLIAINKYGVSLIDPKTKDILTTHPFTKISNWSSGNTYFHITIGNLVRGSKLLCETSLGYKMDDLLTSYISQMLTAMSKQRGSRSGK

[1] = target: T2, Myo7a MF2 G2163S (deafness mutant) (human, UniProt Q13402-1 1702-2215, G2163S)
T2 construct: Myosin 7a, human, MF2, residues 1702-2215 of UniProt Q13402-1, with a deafness missense mutation; source: E. coli, purified similarly as wild type (Histrap, CaptoQ, gel filtration)
T2 sequence (looked up): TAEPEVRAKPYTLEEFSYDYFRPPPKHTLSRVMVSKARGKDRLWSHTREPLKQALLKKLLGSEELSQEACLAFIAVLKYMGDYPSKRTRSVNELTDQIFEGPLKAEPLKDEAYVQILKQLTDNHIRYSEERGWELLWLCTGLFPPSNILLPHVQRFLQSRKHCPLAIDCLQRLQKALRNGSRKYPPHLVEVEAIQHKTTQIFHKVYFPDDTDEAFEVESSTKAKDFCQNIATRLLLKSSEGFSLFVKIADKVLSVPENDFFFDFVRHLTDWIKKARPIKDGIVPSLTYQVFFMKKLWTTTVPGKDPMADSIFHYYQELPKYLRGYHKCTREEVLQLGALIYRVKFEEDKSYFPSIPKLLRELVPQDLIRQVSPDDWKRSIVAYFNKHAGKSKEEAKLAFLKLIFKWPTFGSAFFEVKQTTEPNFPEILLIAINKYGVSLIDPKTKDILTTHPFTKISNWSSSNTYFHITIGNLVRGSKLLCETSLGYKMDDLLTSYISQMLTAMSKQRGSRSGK

Myosin 7b MF2 = target: T3, Myosin 7b MF2 (human, UniProt Q6PIF6 1605-2116)
T3 construct: also called M7b MF2; Myo7b MF2; source: E. coli (BL21-AI, BL21 (DE3) Rosetta or BL21-Gold (DE3)), purified (Histrap, CaptoQ, gel filtration)
T3 sequence (looked up): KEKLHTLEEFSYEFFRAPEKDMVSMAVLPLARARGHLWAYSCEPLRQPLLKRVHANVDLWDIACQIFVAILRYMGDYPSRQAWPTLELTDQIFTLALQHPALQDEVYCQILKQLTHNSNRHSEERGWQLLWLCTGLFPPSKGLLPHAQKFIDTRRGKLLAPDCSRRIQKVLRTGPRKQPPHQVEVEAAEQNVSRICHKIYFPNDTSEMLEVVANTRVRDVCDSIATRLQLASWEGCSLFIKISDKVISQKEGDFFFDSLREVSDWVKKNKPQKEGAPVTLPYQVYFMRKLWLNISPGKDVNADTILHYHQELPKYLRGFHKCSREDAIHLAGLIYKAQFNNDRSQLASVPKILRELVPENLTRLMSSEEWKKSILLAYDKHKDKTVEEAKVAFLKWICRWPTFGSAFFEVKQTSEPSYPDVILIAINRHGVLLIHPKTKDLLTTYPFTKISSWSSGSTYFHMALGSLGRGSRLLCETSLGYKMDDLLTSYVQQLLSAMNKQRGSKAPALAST

Myosin 7b MF2 L2083W = target: T4, Myosin 7b MF2 L2083W (human, UniProt Q6PIF6 1605-2116, L2083W)
T4 construct: Myosin 7b, human, MF2, residues 1605-2116 of UniProt Q6PIF6; also called M7b MF2 L2083W; source: E. coli, purified similarly as wild type (Histrap, CaptoQ, gel filtration)
T4 sequence (looked up): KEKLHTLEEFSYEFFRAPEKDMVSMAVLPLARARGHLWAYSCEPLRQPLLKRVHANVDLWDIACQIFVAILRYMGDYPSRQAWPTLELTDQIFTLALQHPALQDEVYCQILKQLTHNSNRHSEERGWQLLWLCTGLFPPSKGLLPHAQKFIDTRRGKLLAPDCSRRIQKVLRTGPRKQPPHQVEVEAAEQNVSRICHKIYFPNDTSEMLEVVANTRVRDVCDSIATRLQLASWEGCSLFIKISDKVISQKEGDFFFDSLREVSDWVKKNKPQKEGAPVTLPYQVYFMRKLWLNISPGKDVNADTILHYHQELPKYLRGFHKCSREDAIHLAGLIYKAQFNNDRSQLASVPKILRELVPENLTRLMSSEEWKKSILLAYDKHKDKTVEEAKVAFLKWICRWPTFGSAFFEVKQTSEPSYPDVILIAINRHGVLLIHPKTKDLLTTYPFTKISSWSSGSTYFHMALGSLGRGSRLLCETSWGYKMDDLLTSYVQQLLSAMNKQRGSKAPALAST

B1: Harmonin-a PDZ3c (non-fluorescent, as used in MST) (domain or fragment, human, UniProt Q9Y6N9-1 428-552, looked up)
chain: QDFRKYEEGFDPYSMFTPEQIMGKDVRLLRIKKEGSLDLALEGGVDSPIGKVVVSAVYERGAAERHGGIVKGDEIMAINGKIVTDYTLAEAEAALQKAWNQGGDWIDLVVAVCPPKEYDDELTFF
notes: Harmonin-a1 (USH1C), human, PDZ3 plus C-terminal peptide, residues 428-552 of UniProt Q9Y6N9-1; The methods say only that samples for ITC or crystallisation were digested with TEV protease; also called PDZ3c (isoA); source: E. coli BL21 (DE3) Rosetta, purified (Glutathione Sepharose 4B, size-exclusion chromatography)
YFP-Myosin 7a MF2
  Kd: 1400 ± 200 nM

B2: YFP-Harmonin-a PDZ3c (domain or fragment, human, UniProt Q9Y6N9-1 428-552, looked up)
chain: QDFRKYEEGFDPYSMFTPEQIMGKDVRLLRIKKEGSLDLALEGGVDSPIGKVVVSAVYERGAAERHGGIVKGDEIMAINGKIVTDYTLAEAEAALQKAWNQGGDWIDLVVAVCPPKEYDDELTFF
notes: Harmonin-a1 (USH1C), human, residues 428-552 of UniProt Q9Y6N9-1; also called ^YFPPDZ3c (isoA); source: E. coli BL21 (DE3) Rosetta, purified (Glutathione Sepharose 4B, size-exclusion chromatography)
[1]
  Kd: > 60000 nM
Myosin 7b MF2
  Kd: 1900 ± 600 nM
Myosin 7b MF2 L2083W
  Kd: > 300000 nM
